The target in assay [1] is integrin complement receptor 3 (CR3) on human leukocytes (human) (UniProt P11215).
For assay [2] the target is unchanged. Briefly: competition: 125I-Factor X binding to fMLP-stimulated human neutrophils.
Assay [3] has the same target. This is another data set of the same source.
Assay [4] shares this target. This is another data set of the same source.
Assay [5] has the same target. The source holds these as a separate data set.
The target is the same in assay [6]. This is another data set of the same source.
For assay [7] the target is unchanged. Nature of the assay: macrophages spread on antibody-coated wells; residual CD11b/CD18 detected with C3bi-coated erythrocytes.

From patent US6015560 come the findings set out here.

Like-named read-outs stand apart in the source and are kept apart here.

In general, IC50 refers to the concentration at which inhibition is half-maximal. A lower IC50 goes with higher potency. As to “Filamentous hemagglutinin (FHA) of Bordetella pertussis, native purified protein (from UniProt P12255) (ligand)”, the % Inhibition of TEM (transendothelial migration of neutrophils) in assay [1] is 82%. In assay [2], this substance registered an IC50 of 0.1 µM. Besides, in assay [3], the % inhibition of 125I-Factor X binding was 70%. Also, the concentration at which inhibition of neutrophil adherence was lost in assay [4] worked out at 0.001 µM.
In assay [5], “mAb W6/32 against HLA class I antigen (antibody)” displayed an inhibition of transendothelial migration of neutrophils of 6%.
In assay [6], mAb IB4 against CD18 (antibody) came in with an inhibition of neutrophil adherence to TNF-stimulated HUVEC of 38%. Also, the inhibition of transendothelial migration of neutrophils in assay [5] is 73%. Moreover, in assay [7], the % reduction of the binding of C3bi-coated erythrocytes to macrophages worked out at 67%. This substance also yielded a % inhibition of 125I-Factor X binding in assay [2] of 53%.
